This experiment addresses 人源PGII蛋白 (human pepsinogen II from human gastric mucosa, Lee Biosolutions, cat. 440-50) (human) (UniProt P20142). The experiment in a line: indirect ELISA, human-derived PGII coated 2 μg/mL, culture supernatant diluted 50-fold.

For two molecules, OD450 results are on record in patent publication CN114835814A.

Sequence of UniProt P20142 (P20142 17-388): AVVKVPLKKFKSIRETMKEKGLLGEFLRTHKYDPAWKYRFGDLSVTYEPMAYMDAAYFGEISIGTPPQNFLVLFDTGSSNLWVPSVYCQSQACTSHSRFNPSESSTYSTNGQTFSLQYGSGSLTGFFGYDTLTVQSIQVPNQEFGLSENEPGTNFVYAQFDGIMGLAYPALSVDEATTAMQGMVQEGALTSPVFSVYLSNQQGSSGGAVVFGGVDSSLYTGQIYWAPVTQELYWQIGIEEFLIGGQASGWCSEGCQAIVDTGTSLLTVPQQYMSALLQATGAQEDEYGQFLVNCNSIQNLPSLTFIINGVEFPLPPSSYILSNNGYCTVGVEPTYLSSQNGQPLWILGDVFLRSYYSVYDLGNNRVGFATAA

B1: 鼠单克隆抗体1A7 (antibody, V domains shown)
VH: EVKLEESGGGLVQPGGSMKLSCVASGFAFSNYWMNWVRQSPEKGLEWVAEIRLKSNNYATHYAESVKGRFTISRDDSKSSVDLQMNNLRAEDTGTYYCNPFFYDYGYWGQGTTLTVSS
VL: QIVLTQSPAILSASPGEKVTISCSASSSVSYMYWYQQKPGSSPKPWIYRTSNLASGVPARFSGSGSGTSYSLTISSMEAEDAATYYCQQYHSYPRTFGGGTKLEIK
In the case of B1, the OD450 was 1.7 OD450.

B2: 鼠单克隆抗体3G10 (antibody, part only; not given: Light chain variable domain, V domains shown, part only)
VH: EVQLQQSGAELVKPGASVKLSCTASGFNIKDSYIHWVTQRPDQGLEWIGMIDPTNDNIRYDPKFQGRATITADTSSNTAYLQLSSLTSEDTAVYFCARDGTSLDYWGQGTSLTVSS
On to B2, for which the OD450 was 1.72 OD450.
